Test system: MS2 coat protein
Experiment: apparent KD of MS2 coat protein; higher = weaker reporter binding
Conditions: Eterna round: R107
Method in brief: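 For every design, apparent KD is the median of normalised binding-curve fits from its clusters. The RNA switches were transcribed on-chip from Illumina sequencing clusters and titrated with SNAP-549-labelled MS2 coat protein (twofold steps, 0.7 or 1.5 nM to 3 µM; 0.8–1.5 h to 10–20 min per step). Titrations used 100 mM Tris-HCl pH 7.5, 80 mM KCl, 4 mM MgCl2, without or with constant ligand.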

[1] = input ligand: theophylline 20 uM
[2] = input ligand: theophylline 2 mM
[3] = input ligand: tryptophan 2.4 mM

Row | Sequence | apparent KD of MS2 coat protein (input ligand: arginine 13.2 mM) [nM] | apparent KD of MS2 coat protein [1] [nM] | apparent KD of MS2 coat protein [2] [nM] | apparent KD of MS2 coat protein (input ligand: none) [nM] | apparent KD of MS2 coat protein [3] [nM]
1 | CUAGACUGUGCGGCCGCCACUGGCUCAUCCUGCAUUACAUGAGGAUCACCCAUGUUGCGGCCUCCCAGGACCGGGCAUAGUCUGC [Riinzaa] | 91 | 474 | 734 | – | –
2 | CUAUAAGUAACUGAUACCAGUGUACUGACAUGAGGAUCACCCAUGUUGGGUUUUGUUGUACACCCUUGGCAGCAGAAUCUUAUAG [AstrosExyTheB#14] | 38.9 | 70.3 | 111 | 63.8 | 72.5
3 | CUAUAUAUAAGAAGGAGCGACAUGAGGAUCACCCAUGUCUACCACGUCGAAAGACGCUCAUGUCAGGUAGGUCGCUUAUAUAUAG [Astros-Eli-mod1] | 108 | 155 | 139 | 122 | 93.9
4 | CUAUAUAUAGCGGCCGCCACUUACUCAUGAGGUAACAACAUGAGGAUCACCCAUGUUUGAGGAUCAAGGACCGGGCUAUAUAUAG [AstrosSSTryB#4] | 28.1 | 33.5 | 33.2 | – | –
5 | CUCCGAGGCUAUACUAUCCGCCUCAGUGAUACCAGAAUACCUAUAUUCCCUUGGCAGCAUCACAUGAGGAUCACCCAUGUGCCAU [SSTheo A #14] | 13.4 | 16.3 | – | – | 12.2
6 | CUCGGAACAAUCGAUACCAGUUCUCAUGGAUUGCAGCAGUACAUGAGGAUCACCCAUGUAAACCCUUGGCAGCGAAGAACAAGAC [theeternabot_exclusion_MS2_Theo_B_18] | 26 | 48.2 | – | – | 33.4
7 | CUCUCAUGAACAUGAGGAUCACCCAUGUAACGAGGACCGGUACGGCCGCCACUCGAACGUGGAAACCAAUCGAGUGAGGUGGGAG [Tryp A Ex t5b] | 45.9 | 98.4 | 119 | 116 | 352
8 | CUUACACAUGAGGAUCACCCAUGUCAUGAUACCAGCCAAUACACUGGCCCUUGGCAGCAUCUCAGCCUCAGCUACAUUGACUGAC [theeternabot_sameState_MS2_Theo_A_2] | 18.9 | 28.2 | – | – | 17.8
9 | GAAACGUAGGUGGAGCGGUGAAAUGGCGAUACCAGCGUGGAAACACGCCCUUGGCAGCGUUAGAACAUGAGGAUCACCCAUGUUU [#21 Exclusion-TheophyllineA] | 19.3 | 62.4 | – | – | 26.4
10 | GAAUUUAUAUGAAGGAGCGUCGAAAAUGGGUAAACAUGAGGAUCACCCAUGUAAAGGGAACGACAGGUAGGUCGCAUAUGGAUUC [AstromonsSSArgB#26] | 114 | 196 | 219 | 175 | 197
11 | GACAUGAGGAUCGAUACCAGCGACAUGAGGAUCACAUGAGGAUCACCCAUGUGUAGUAUACGCCCUUGGCAGCGAACAUGAGGAU [Same State Theophylline B 3] | 74.3 | 71.2 | 39.2 | 51.4 | 32.3
12 | GACAUUAUCUGAAGGAGCGAGGUAAAUAGGGAUGAGCAUACAUGAGGAUCACCCAUGUGGCCUCAGGUAGGUCGCAGAUGAGAUU [Exclusion Arginine B GF26] | 41.1 | 212 | 453 | 253 | 256
13 | GACCGAUUAUAGUGCGAUUCUCUUGUGGAAGGAGCGCAGAGGACUGCAGGUAGGUCGCCACAUGAGGAUCACCCAUGUCAGGAUA [Esxebiat] | 65.6 | 89.6 | 708 | 183 | 10.6
14 | GACGGGCCUAUUGAUACCAGACCUAGUGACAACAUGAGGAUCACCCAUGUGACGGCAAAAGUCCCUUGGCAGCAAGUAGAAAUAA [theeternabot_sameState_MS2_Theo_B_41] | 14 | 16.6 | – | – | 15.4
15 | GAGGGUGAAUCUCUAGUCCGUUUGACGGAUACCAGCGAGAGGUAUCGCCCUUGGCAGCCGACGACAUGAGGAUCACCCAUGUUAA [#07 Exclusion-TheophyllineA] | 22.2 | 42.6 | 22 | 40.6 | 29.3
16 | GAGGGUGGGUCUCUAAUCCGUUUGACGGAUACCAGCGAGAGAUAUCGCCCUUGGCAGCCGACGACAUGAGGAUCACCCAUGUAAA [#06 Exclusion-TheophyllineA] | 17.1 | 19.6 | – | – | 16.9
17 | GAGGUCCUGAGAGAUACCAGUGAGGCCACAUGAGGAUCACCCAUGUCCCUCACUCCGGCCCACCCUUGGCAGCUCGGAAGGUAAA [Exclusion Theophylline B GF 23] | 14.9 | 29.7 | – | – | 17.5
18 | GAUAUGGAAACAUGUCAGAUCCUUACCGGUCGAGGACCGGUACGGCCGCCACUCGAAAACGAGGAACAUGAGGAUCACCCAUGUA [Ex Tryptophan A 20] | 32.7 | 50.4 | 49.5 | – | –
19 | GAUAUGGAAACAUGUCAGAUCCUUACCGGUCGAGGACCGGUACGGCCGCCACUCGAAAACGAUGUACAUGAGGAUCACCCAUGUA [Ex Tryptophan A 19] | 13.7 | 16.2 | 14.7 | 14 | 21.6

Source: the supplement of paper PMC9170038
